Measurements taken from patent US20210220472A1 (YISSUM RESEARCH DEVELOPMENT COMPANY OF THE HEBREW …, published 2021).
Blank lines part the entries; values can stand above or below the molecule they belong to.

Key:
[1] = molecular target: human TIGIT expressed on cells (YTS-TIGIT transfectants, NK cells of healthy donors, CD8+ TILs) (human) (UniProt Q495A1); test: FACS on 75×10^3 YTS-TIGIT cells, serial dilutions 250 nM to 65 fM
[2] = molecular target: human TIGIT expressed on cells (YTS-TIGIT transfectants, NK cells of healthy donors, CD8+ TILs) (human) (UniProt Q495A1); test: FACS on YTS-TIGIT cells in the presence of 2.5 pmole PVR-Fc, bound antibody detected with anti-mouse IgG Alexa Fluor 647
[3] = molecular target: human TIGIT expressed on cells (YTS-TIGIT transfectants, NK cells of healthy donors, CD8+ TILs) (human) (UniProt Q495A1); test: FACS blocking assay on YTS-TIGIT cells: antibody titrated against 2.5 pmole PVR-Fc, bound PVR-Fc detected
[4] = molecular target: T1, human TIGIT from two commercial sources (loaded on Biacore biosensor) (human, UniProt Q495A1 22-141); test: SPR (Biacore), human TIGIT on the biosensor; one of two commercial sources; the other of two TIGIT sources (source not named)
T1 sequence (looked up): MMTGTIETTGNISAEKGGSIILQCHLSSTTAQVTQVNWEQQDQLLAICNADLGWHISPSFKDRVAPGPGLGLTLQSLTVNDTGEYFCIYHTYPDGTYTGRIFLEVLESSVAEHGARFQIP
Procedure: (§1) Surface plasmon resonance (SPR) Biosensor Biacore™ T100 (GE Healthcare) was used to determine Koff, Kon and KD between the antibodies and TIGIT.
(§2) Full binding kinetic analyses of the mAbs to human TIGIT from two sources were carried out using Biacore.

[5] = molecular target: T2, human TIGIT expressed on cells (YTS-TIGIT transfectants, NK cells of healthy donors, CD8+ TILs) (human, UniProt Q495A1 22-244); test: FACS titration on YTS-TIGIT cells, fluorescence intensity against antibody concentration
T2 construct: whole, on cells; also called hTIGIT; T-cell immunoglobulin and ITIM domain
T2 sequence (looked up): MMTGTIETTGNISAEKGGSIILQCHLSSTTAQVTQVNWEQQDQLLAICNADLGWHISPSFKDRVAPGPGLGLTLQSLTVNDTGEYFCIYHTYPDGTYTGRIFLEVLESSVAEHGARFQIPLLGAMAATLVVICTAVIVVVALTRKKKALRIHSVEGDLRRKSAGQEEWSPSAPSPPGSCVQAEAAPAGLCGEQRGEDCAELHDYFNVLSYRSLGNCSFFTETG
Excerpt: FIG. 6A. […] Background—staining of mIgG (grey filled histograms). Each panel represents a specific concentration of the antibodies as indicated. Y-axis of each panel is cell counts and X-axis is fluorescence intensity (FL1-H).

[6] = molecular target: T1, human TIGIT from two commercial sources …; test: SPR (Biacore), human TIGIT on the biosensor; one of two commercial sources; one of two TIGIT sources (source not named)
Procedure: as §1, §2

[7] = molecular target: T1, human TIGIT from two commercial sources …; test: SPR (Biacore), human TIGIT on the biosensor; average of two commercial sources; average of the two TIGIT sources
Procedure: as §1, §2

lowest concentration at which cells were stained [1]: > 1950 fM
MFI of bound antibody at 0.014 pmol [2]: 64
MFI of bound antibody at 0.028 pmol [2]: 88
MFI of bound antibody at 0.056 pmol [2]: 150
MFI of bound antibody at 0.115 pmol [2]: 224
MFI of bound antibody at 0.21 pmol [2]: 302
MFI of bound antibody at 0.425 pmol [2]: 325
MFI of bound antibody at 0.85 pmol [2]: 380
MFI of bound antibody at 27 pmol [2]: 445
MFI of bound PVR-Fc, antibody at 0.014 pmol [3]: 34
MFI of bound PVR-Fc, antibody at 0.028 pmol [3]: 27.1
MFI of bound PVR-Fc, antibody at 0.056 pmol [3]: 22.6
MFI of bound PVR-Fc, antibody at 0.115 pmol [3]: 12.6
MFI of bound PVR-Fc, antibody at 0.21 pmol [3]: 7.8
MFI of bound PVR-Fc, antibody at 0.425 pmol [3]: 4.5
Molecule: commercial anti-TIGIT antibody MBSA43 (eBioscience Cat#12-9500-42)

Kd [4]: 0.387 nM
EC50 (read off the curve) [5]: ~0.007 nM
Kd [6]: 0.513 nM
Kd [7]: 0.45 nM
B1: anti human TIGIT monoclonal antibody VSIG9#1 (antibody, V domains shown)
VH: QVQLQESGAELARPGASVKLSCKASGYTFTSYGISWVKQRTGQGLEWIGEIYPRSGNTYYNEKFKGKATLTADKSSSTAYMELSSLTSEDSAVYFCARKGPYYTKNEDYWGQGTILTVSS
VL: DIQMTQSPASLAASVGETVTITCRASEHIYYSLAWYQQKQGKSPQLLIYNANSLEDGVPSRFSGSGSGTQYSMKINSMQPEDTATYFCKQAYDVPRTFGGGTKLEIKR
notes: Mouse monoclonal antibody from a hybridoma; It was detected with anti-mouse IgG; also called Vsig9.01; anti TIGIT-VSIG9#1

Kd [4]: 107 nM
Kd [6]: 99.6 nM
Kd [7]: ~100 nM
B2: anti human TIGIT monoclonal antibody 258-CS1#4 (antibody, V domains shown)
VH: QVQLLQPGAELVKPGASVKLSCKASGYTFTIYCIHWVKQRPGQGLEWIGEISPSNGRTIYNEKFKNKATLTIDKSSTTAYMQLSSLTSEDSAVYCCAISDGYDGYYFDYWGQGTTLTVSS
VL: DIQMTQSPSSLSASLGERVSLTCRASQEISGYLNWLQQKPDGTIKRLIYAASTLDSGVPKRFSGSRSGSDYSLTISRLESEDFADYYCLQYASYPRTFGGGTKLEIK
notes: Mouse monoclonal antibody from a hybridoma
